Results taken from patent US20240010722A1 (published 2024).

Target: T1, human MAdCAM (human, UniProt Q13477 19-317, limits assumed)
T1 construct: also called huMAdCAM; human MAdCAM-1
T1 sequence (looked up): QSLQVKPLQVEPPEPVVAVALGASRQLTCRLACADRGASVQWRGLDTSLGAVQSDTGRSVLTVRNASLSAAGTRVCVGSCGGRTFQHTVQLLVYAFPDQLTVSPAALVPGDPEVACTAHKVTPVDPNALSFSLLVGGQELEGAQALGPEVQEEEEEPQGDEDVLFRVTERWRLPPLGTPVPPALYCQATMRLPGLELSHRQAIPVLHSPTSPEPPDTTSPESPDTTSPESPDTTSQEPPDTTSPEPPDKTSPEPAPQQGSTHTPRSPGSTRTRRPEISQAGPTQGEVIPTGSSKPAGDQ
Assay: BLI (Octet), binder on AHC tips
Outline: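 Octet96 RED assay with anti-human IgG Fc biosensors equilibrated 20 minutes in assay buffer. Test article at 10 μg/mL in assay buffer was loaded onto tips for 240 s. Association with MAdCAM lasted 120 s and dissociation in assay buffer 120 s; MAdCAM-1 was a seven-point serial dilution from 200 nM down to 3.13 nM. Kinetic rates and dissociation constant came from a global one-to-one fit in the Octet data analysis software.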

Row | Kd | koff | kon | Binder
1 | 0.175 µM | 0.127 s⁻¹ | 725000 M⁻¹ s⁻¹ | PMAB2 (bispecific antibody, human IgG1, kappa) heavy: EVQLLESGGGLVQPGGSLRLSCAASGFTFSNSDMSWVRQAPGKGLEWVSGITISGGSTYYADSVKGRFTISRDNSKNTLYLQMNSLRAEDTAVYYCARGRGGSGWLDYWGQGTLVTVSSASTKGPSVFPLAPSSKSTSGGTAALGCLVKDYFPEPVTVSWNSGALTSGVHTFPAVLQSSGLYSLSSVVTVPSSSLGTQTYICNVNHKPSNTKVDKKVEPKSCDKTHTCPPCPAPEAAGAPSVFLFPPKPKDTLMISRTPEVTCVVVDVSHEDPEVKFNWYVDGVEVHNAKTKPREEQYNSTYRVVSVLTVLHQDWLNGKEYKCKVSNKALPAPIEKTISKAKGQPREPQVYTLPPSREEMTKNQVSLTCLVKGFYPSDIAVEWESNGQPENNYKTTPPVLDSDGSFFLYSKLTVDKSRWQQGNVFSCSVMHEALHNHYTQKSLSLSPGGGGGSGGGGSGGGGSEVQLLESGGGLVQPGGSLRLSCAASGFTFSSYWMHWVRQAPGKGLEWVSAISGSSGSTYYADSVKGRFTISRDNSKNTLYLQMNSLRAEDTAVYYCARDRPYGYYMDVWGKGTTVTVSSGGGGSGGGGSGGGGSGGGGSDIQMTQSPSSLSASVGDRVTITCRASQSISSSLAWYQQKPGKAPKLLIYAASSLQSGVPSRFSGSGSGTDFTLTISSLQPEDFATYYCQQYKSYPVTFGQGTKVEIK light: not shown
2 | 0.0418 µM | 0.0547 s⁻¹ | 1.31e+06 M⁻¹ s⁻¹ | PMAB4 (bispecific antibody, human IgG1, kappa) heavy: EVQLLESGGGLVQPGGSLRLSCAASGFTFSNSDMSWVRQAPGKGLEWVSGITISGGSTYYADSVKGRFTISRDNSKNTLYLQMNSLRAEDTAVYYCARGRGGSGWLDYWGQGTLVTVSSASTKGPSVFPLAPSSKSTSGGTAALGCLVKDYFPEPVTVSWNSGALTSGVHTFPAVLQSSGLYSLSSVVTVPSSSLGTQTYICNVNHKPSNTKVDKKVEPKSCDKTHTCPPCPAPEAAGAPSVFLFPPKPKDTLMISRTPEVTCVVVDVSHEDPEVKFNWYVDGVEVHNAKTKPREEQYNSTYRVVSVLTVLHQDWLNGKEYKCKVSNKALPAPIEKTISKAKGQPREPQVYTLPPSREEMTKNQVSLTCLVKGFYPSDIAVEWESNGQPENNYKTTPPVLDSDGSFFLYSKLTVDKSRWQQGNVFSCSVMHEALHNHYTQKSLSLSPGGGGGSGGGGSGGGGSEVQLLESGGGLVQPGGSLRLSCAASGFTFSSYWMHWVRQAPGKGLEWVSAISGSSGSTYYADSVKGRFTISRDNSKNTLYLQMNSLRAEDTAVYYCARDRPYGYYMDVWGKGTTVTVSSGGGGSGGGGSGGGGSGGGGSDIQMTQSPSSLSASVGDRVTITCRASQSISRSLAWYQQKPGKAPKLLIYAASSLQSGVPSRFSGSGSGTDFTLTISSLQPEDFATYYCQQYKSYPVTFGQGTKVEIK light: not shown
3 | 0.413 µM | 0.12 s⁻¹ | 290000 M⁻¹ s⁻¹ | PMAB5 (bispecific antibody, human IgG1, kappa) heavy: EVQLLESGGGLVQPGGSLRLSCAASGFTFSNSDMSWVRQAPGKGLEWVSGITISGGSTYYADSVKGRFTISRDNSKNTLYLQMNSLRAEDTAVYYCARGRGGSGWLDYWGQGTLVTVSSASTKGPSVFPLAPSSKSTSGGTAALGCLVKDYFPEPVTVSWNSGALTSGVHTFPAVLQSSGLYSLSSVVTVPSSSLGTQTYICNVNHKPSNTKVDKKVEPKSCDKTHTCPPCPAPEAAGAPSVFLFPPKPKDTLMISRTPEVTCVVVDVSHEDPEVKFNWYVDGVEVHNAKTKPREEQYNSTYRVVSVLTVLHQDWLNGKEYKCKVSNKALPAPIEKTISKAKGQPREPQVYTLPPSREEMTKNQVSLTCLVKGFYPSDIAVEWESNGQPENNYKTTPPVLDSDGSFFLYSKLTVDKSRWQQGNVFSCSVMHEALHNHYTQKSLSLSPGGGGGSGGGGSGGGGSEVQLLESGGGLVQPGGSLRLSCAASGFTFSSYWMHWVRQAPGKGLEWVSAISGSSGSTYYADSVKGRFTISRDNSKNTLYLQMNSLRAEDTAVYYCARDRPYYYYMDVWGKGTTVTVSSGGGGSGGGGSGGGGSGGGGSDIQMTQSPSSLSASVGDRVTITCRASQSISRSLAWYQQKPGKAPKLLIYAASSLQSGVPSRFSGSGSGTDFTLTISSLQPEDFATYYCQQYKSYPVTFGQGTKVEIK light: not shown
4 | 0.0714 µM | 0.0469 s⁻¹ | 656000 M⁻¹ s⁻¹ | PMAB8 (bispecific antibody, human IgG1, kappa) heavy: EVQLLESGGGLVQPGGSLRLSCAASGFTFSNSDMSWVRQAPGKGLEWVSGITISGGSTYYADSVKGRFTISRDNSKNTLYLQMNSLRAEDTAVYYCARGRGGSGWLDYWGQGTLVTVSSASTKGPSVFPLAPSSKSTSGGTAALGCLVKDYFPEPVTVSWNSGALTSGVHTFPAVLQSSGLYSLSSVVTVPSSSLGTQTYICNVNHKPSNTKVDKKVEPKSCDKTHTCPPCPAPEAAGAPSVFLFPPKPKDTLMISRTPEVTCVVVDVSHEDPEVKFNWYVDGVEVHNAKTKPREEQYNSTYRVVSVLTVLHQDWLNGKEYKCKVSNKALPAPIEKTISKAKGQPREPQVYTLPPSREEMTKNQVSLTCLVKGFYPSDIAVEWESNGQPENNYKTTPPVLDSDGSFFLYSKLTVDKSRWQQGNVFSCSVMHEALHNHYTQKSLSLSPGGGGGSGGGGSGGGGSEVQLLESGGGLVQPGGSLRLSCAASGFTFSSYWMHWVRQAPGKGLEWISAISGSGGSTYYADSVKGRFTISRDNSKNTLYLQMNSLRAEDTAVYYCARDRPYGYYMDVWGKGTTVTVSSGGGGSGGGGSGGGGSGGGGSDIQMTQSPSSLSASVGDRVTITCRASQSISRSLAWYQQKPGKAPKLLIYAASSLQSGVPSRFSGSGSGTDFTLTISSLQPEDFATYYCQQYKSYPVTFGQGTKVEIK light: not shown
5 | 0.333 µM | 0.239 s⁻¹ | 717000 M⁻¹ s⁻¹ | PMAB3 (bispecific antibody, human IgG1, kappa) heavy: EVQLLESGGGLVQPGGSLRLSCAASGFTFSNSDMSWVRQAPGKGLEWVSGITISGGSTYYADSVKGRFTISRDNSKNTLYLQMNSLRAEDTAVYYCARGRGGSGWLDYWGQGTLVTVSSASTKGPSVFPLAPSSKSTSGGTAALGCLVKDYFPEPVTVSWNSGALTSGVHTFPAVLQSSGLYSLSSVVTVPSSSLGTQTYICNVNHKPSNTKVDKKVEPKSCDKTHTCPPCPAPEAAGAPSVFLFPPKPKDTLMISRTPEVTCVVVDVSHEDPEVKFNWYVDGVEVHNAKTKPREEQYNSTYRVVSVLTVLHQDWLNGKEYKCKVSNKALPAPIEKTISKAKGQPREPQVYTLPPSREEMTKNQVSLTCLVKGFYPSDIAVEWESNGQPENNYKTTPPVLDSDGSFFLYSKLTVDKSRWQQGNVFSCSVMHEALHNHYTQKSLSLSPGGGGGSGGGGSGGGGSEVQLLESGGGLVQPGGSLRLSCAASGFTFSSYWMHWVRQAPGKGLEWVSAISGSSGSTYYADSVKGRFTISRDNSKNTLYLQMNSLRAEDTAVYYCARDRPYYYYMDVWGKGTTVTVSSGGGGSGGGGSGGGGSGGGGSDIQMTQSPSSLSASVGDRVTITCRASQSISSSLAWYQQKPGKAPKLLIYAASSLQSGVPSRFSGSGSGTDFTLTISSLQPEDFATYYCQQYKSYPVTFGQGTKVEIK light: not shown
6 | 0.15 µM | 0.105 s⁻¹ | 698000 M⁻¹ s⁻¹ | PMAB6 (bispecific antibody, human IgG1, kappa) heavy: EVQLLESGGGLVQPGGSLRLSCAASGFTFSNSDMSWVRQAPGKGLEWVSGITISGGSTYYADSVKGRFTISRDNSKNTLYLQMNSLRAEDTAVYYCARGRGGSGWLDYWGQGTLVTVSSASTKGPSVFPLAPSSKSTSGGTAALGCLVKDYFPEPVTVSWNSGALTSGVHTFPAVLQSSGLYSLSSVVTVPSSSLGTQTYICNVNHKPSNTKVDKKVEPKSCDKTHTCPPCPAPEAAGAPSVFLFPPKPKDTLMISRTPEVTCVVVDVSHEDPEVKFNWYVDGVEVHNAKTKPREEQYNSTYRVVSVLTVLHQDWLNGKEYKCKVSNKALPAPIEKTISKAKGQPREPQVYTLPPSREEMTKNQVSLTCLVKGFYPSDIAVEWESNGQPENNYKTTPPVLDSDGSFFLYSKLTVDKSRWQQGNVFSCSVMHEALHNHYTQKSLSLSPGGGGGSGGGGSGGGGSEVQLLESGGGLVQPGGSLRLSCAASGFTFSSYWMHWVRQAPGKGLEWISAISGSGGSTYYADSVKGRFTISRDNSKNTLYLQMNSLRAEDTAVYYCARDRPYGYYMDVWGKGTTVTVSSGGGGSGGGGSGGGGSGGGGSDIQMTQSPSSLSASVGDRVTITCRASQSISSSLAWYQQKPGKAPKLLIYAASSLQSGVPSRFSGSGSGTDFTLTISSLQPEDFATYYCQQYKSYPVTFGQGTKVEIK light: not shown
7 | 0.236 µM | 0.136 s⁻¹ | 576000 M⁻¹ s⁻¹ | PMAB7 (bispecific antibody, human IgG1, kappa) heavy: EVQLLESGGGLVQPGGSLRLSCAASGFTFSNSDMSWVRQAPGKGLEWVSGITISGGSTYYADSVKGRFTISRDNSKNTLYLQMNSLRAEDTAVYYCARGRGGSGWLDYWGQGTLVTVSSASTKGPSVFPLAPSSKSTSGGTAALGCLVKDYFPEPVTVSWNSGALTSGVHTFPAVLQSSGLYSLSSVVTVPSSSLGTQTYICNVNHKPSNTKVDKKVEPKSCDKTHTCPPCPAPEAAGAPSVFLFPPKPKDTLMISRTPEVTCVVVDVSHEDPEVKFNWYVDGVEVHNAKTKPREEQYNSTYRVVSVLTVLHQDWLNGKEYKCKVSNKALPAPIEKTISKAKGQPREPQVYTLPPSREEMTKNQVSLTCLVKGFYPSDIAVEWESNGQPENNYKTTPPVLDSDGSFFLYSKLTVDKSRWQQGNVFSCSVMHEALHNHYTQKSLSLSPGGGGGSGGGGSGGGGSEVQLLESGGGLVQPGGSLRLSCAASGFTFSSYWMHWVRQAPGKGLEWISAISGSGGSTYYADSVKGRFTISRDNSKNTLYLQMNSLRAEDTAVYYCARDRPYYYYMDVWGKGTTVTVSSGGGGSGGGGSGGGGSGGGGSDIQMTQSPSSLSASVGDRVTITCRASQSISSSLAWYQQKPGKAPKLLIYAASSLQSGVPSRFSGSGSGTDFTLTISSLQPEDFATYYCQQYKSYPVTFGQGTKVEIK light: not shown
